# Assay results taken from patent US20210210159A1, “COMPUTATIONAL PROTEIN DESIGN USING TERTIARY OR QUATERNARY STRUCTURAL MOTIFS” (Trustees of Dartmouth College, priority 2018, published 2021).
# B1: design: TERM-based surface-redesigned mCherry, 48 of 64 variable surface positions changed (SEQ ID NO. 2) (protein)
# chain: MVSKGEEDNMAIIKEFMTFEVEMEGTVNGHPFRIRGSGGGDPYEGTQTARLEVVEGGPLPFAWDILSPQFMYGSKAYVKHPADIPDYLKLSFPEGFTWTRTMEFEDGGTVKVTQTSTLKDGKFHYKVKLTGSNFPSDGPVMQKKTMGWEASTERMRPKDGKLEGEIDQELRLKDGGYYRARVRTTYKAKKPVQLPGAYTVRIRLEITSHNEDYTEVEQTETAKGEHSTGGMDELYK
# modifications: TERM-based designed sequence
# Experiments:
# [1] = Fast Protein Liquid Chromatography / size-exclusion chromatography, oligomeric state; assay type: physicochemical; details: concentration of at least 10 μM
# Source text: Based on the standards, the dimeric protein would be expected to elute at the volume indicated by a dotted line, which eliminates the possibility of design oligomerization.
# [2] = Chemical denaturation by guanidinium hydrochloride (GuHCl), chromophore absorbance at 587 nm; assay type: physicochemical; details: compared with original mCherry
# Source text: Degree of foldedness was monitored via chromophore absorbance at 587 nm. Because the chromophore rapidly […], this constitutes a sensitive metric of structure. Data are fit to the Hill equation, with the concentration of half denaturation noted in the legend.
# Thus, by all measures, the designed protein, which differs from the original mCherry in 48 positions, preserved the starting structure and even function.
molecule,measurement,setting,value
B1,oligomeric state in solution,[1],monomeric
same,protection of chromophore on chemical denaturation,[2],approximately as well as the original mCherry
